Marks after values point to notes of the source that are not given here. Blank lines part the entries; values can stand above or below the molecule they belong to. Positions of bridges follow the written chain, without caps; N, C: chain ends. Residues, ends and D or L forms follow the SMILES beside them. No end group written: not given here.
Legend:
[1] = system: human articular cartilage explants; experiment: human articular cartilage explants from diseased joints: matrix synthesis (35S-sulfate uptake); type: cell-based; settings: for matrix synthesis in diseased human articular cartilage: 40 ng/ml
Method: The metacarpophalangeal joint of a six-month old pig was cultured as described above for bovine articular cartilage in Example 8. This explant was cultured in media alone or in media with D12K, D12R, or wild-type IGF-1 (at 10 nM) alone or in the presence of IL-1α at 1 ng/ml, as described above. Human explants were from patients undergoing joint replacement surgery. Articular cartilage was harvested, aliquoted (40-45 mg/tube) and cultured as above. […] Fresh media was added on days 0, 1, 2, and 3. Matrix breakdown was determined by measuring the amount of proteoglycans in the media using the DMMB assay as set forth above. Matrix (proteoglycan) synthesis was determined by measuring ^35S-sulfate uptake as set forth above.
Human articular cartilage explants were cultured in media or treated with IGF-1 by itself or in combination with either BP3-40 or BP3-15 at 0.1 mg/ml as set forth above. Matrix breakdown was determined by measuring the release of proteoglycans into media as described above. Matrix synthesis was determined by counting the amount of ^35S-sulfate incorporated into the cartilage tissue as described above.
The same Material and Methods (for human tissue) were used as described above, using articular cartilage explants from human joints removed from patients undergoing joint replacement. These explants were cultured with IGF-1 alone at 40 ng/ml, or IGF-1 with BP1-17, BP3-15, or BP1-16 (0.1 mg/ml), or IGF-1 with buffer (HEPES).

IGFBP-3 [2] = biological target: T1, IGFBP-3 (Homo sapiens, UniProt P17936); experiment: BIACORE kinetics: IGFBP-3 binding to immobilized IGF-1 variants; settings: for Binding to IGFBP-3 ka: 25 C; for Binding to IGFBP-3 KD: kd/ka
T1 construct: made in house
T1 sequence (P17936 28-291): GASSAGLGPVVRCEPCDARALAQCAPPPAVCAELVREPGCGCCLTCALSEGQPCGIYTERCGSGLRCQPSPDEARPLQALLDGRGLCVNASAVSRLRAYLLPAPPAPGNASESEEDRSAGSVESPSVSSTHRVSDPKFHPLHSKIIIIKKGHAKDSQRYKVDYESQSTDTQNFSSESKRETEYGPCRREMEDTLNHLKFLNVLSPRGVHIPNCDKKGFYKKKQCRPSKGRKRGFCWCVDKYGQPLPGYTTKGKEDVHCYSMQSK
Method: (§1) The binding affinities of the IGF variants for IGFBP-1 and IGFBP-3 were determined using a BIACORE™-2000 real time kinetic interaction analysis system (Biacore, Inc., Piscataway, N.J.) to measure association (ka) and dissociation (kd) rates. Carboxymethylated dextran biosensor chips (CM5, BIAcore Inc.) were activated with EDC (N-ethyl-N′-(3-dimethylaminopropyl)-carbodiimide hydrochloride) and NHS(N-hydroxysuccinimide) according to the supplier's instructions. For immobilization, IGF mutants in 20 mM sodium acetate, pH 4.8, were injected onto the biosensor chip at a concentration of 50 μg/ml to yield approximately 450-600 RU's (resonance-responce units) of covalently-coupled protein. Unreacted groups were blocked with an injection of 1 M ethanolamine. Kinetic measurements were carried out by injecting two-fold serial dilutions (starting at 1 μM) of either IGFBP-1 or IGFBP-3 in running buffer (PBS, 0.05% TWEEN 20™, 0.1% ovalbumin, 0.1% sodium azide) at 25 °C using a flow rate of 20 μl/min. Association rates (ka) and dissociation rates (kd) were calculated separately using a 1:1 Langmuir™ association model in the BIACORE™ evaluation software v. 3.0. The equilibrium dissociation constant (KD) was calculated as kd/ka.

IGFBP-1 [3] = biological target: T2, IGFBP-1 (Homo sapiens, UniProt P08833); experiment: BIACORE kinetics: IGFBP-1 binding to immobilized IGF-1 variants; design: made in house; host or cells: CHO cells; settings: for Binding to IGFBP-1 ka: 25 C; for Binding to IGFBP-1 KD: kd/ka
T2 sequence (P08833 26-259): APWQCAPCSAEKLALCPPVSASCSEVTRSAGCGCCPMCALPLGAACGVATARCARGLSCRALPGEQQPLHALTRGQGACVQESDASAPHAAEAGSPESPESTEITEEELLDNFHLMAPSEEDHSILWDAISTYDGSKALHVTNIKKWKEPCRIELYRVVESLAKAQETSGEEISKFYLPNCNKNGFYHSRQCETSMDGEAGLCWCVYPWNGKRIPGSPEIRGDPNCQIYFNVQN
Method: as §1
(§2) For measurements of IGFBP-1 binding to IGF-1, kinetics experiments were conducted using a single-cysteine IGF-1 variant, Y31C, that was immobilized onto the sensor chip surface via a disulfide linkage (BIACORE™ System Manual Supplement, 5a-1, Pharmacia (1991)).

IGFBP-1 [4] = experiment: as above; design: species or system human; settings: from relative KD values
Method: as §1, §2

IGFBP-1 [5] = experiment: competitive phage ELISA of IGF-1 mutants, IGFBP-1; type: binding, human; settings: relative IC50 IGFBP-1/relative IC50 IGFBP-3
Method: (§3) An alanine-scanning mutagenesis approach (Cunningham and Wells, Science, 244: 1081-1085 (1989); U.S. Pat. No. 5,834,250) was used to remove that portion of each side chain of IGF-1 beyond the beta carbon. The contribution of these atoms to the free energy of binding of the IGF-1 analog to IGFBP-1 or to IGFBP-3 was then assessed by competitive phage ELISA. In this assay, IGFBP-1 or IGFBP-3 is used to inhibit IGF-phage mutants from binding to an IGFBP-1- or IGFBP-3-coated immunosorbant plate.
(§4) Immunosorbent plates (Nunc, MAXISORP™, 96 wells) were coated with 100 μl/well of 1 μg/ml IGFBP-1 or IGFBP-3 in PBS buffer pH 7.2 at 4° C. overnight. The plates were then blocked with 0.5% TWEEN 20™/PBS (also used as binding buffer) for 2 hours at room temperature (proteinaceous blocking agents like bovine serum albumin were avoided to prevent potential IGF or IGFBP contamination). E. coli cells (XL1-Blue, Stratagene) freshly transformed with phagemid vector were grown overnight in 5 mL 2YT medium (Sambrook et al., supra) in the presence of M13-VCS helper phage (Stratagene). Phage particles were harvested and resuspended in PBS buffer as described in Lowman, H. B., “Phage Display of Peptide Libraries on Protein Scaffolds,” in Cabilly, S. (ed.), Combinatorial Peptide Library Protocols (Humana Press Inc.: Totowa, N.J., 1998), pp. 249-264. Then phage concentrations were normalized to yield a maximal ELISA signal of 0.2-0.4 for each mutant (Lowman, in Cabilly, S. (ed.), supra). Threefold serial dilutions of soluble competitor were prepared on non-absorbent microtiter plates (Nunc, F, 96 wells) with binding buffer (0.5% TWEEN 20™/PBS) containing phage at the previously determined concentrations. The dilution range of competitor protein extended over six orders of magnitude, starting at 5 μM for IGFBP-1 and 500 nM for IGFBP-3. After blocking, the plates containing immobilized target were washed with 0.05% TWEEN™/PBS buffer and subsequently incubated with 80 μl/well of the premixed phage-competitor solutions for 1 hour at room temperature. After washing, bound phage was detected with 80 μl/well of a solution containing a primary rabbit anti-phage polyclonal antibody and a secondary goat anti-rabbit monoclonal antibody-horseradish peroxidase conjugate in 0.5% TWEEN 20™/PBS. o-Phenylenediamine (Sigma) and tetramethylbenzidine (Kirkegaard and Perry) were used as chromogenic substrates, resulting in product detection at 492 and 450 nm, respectively. IC50 values were determined by fitting the binding data to a generic saturation curve (Lowman, in Cabilly, S. (ed.), supra). At least two individual clones of each IGF-1 mutant were assayed. Numbers in Table XIII represent mean±standard deviation of individually assessed IC50 values.

IGFBP-1 [6] = biological target: T2, IGFBP-1; experiment: competitive phage ELISA of IGF-1 mutants, IGFBP-1; type: binding; design: made in house; host or cells: CHO cells; settings: phage display, soluble IGFBP-1 competitor
Method: as §3, §4

IGFBP-3 [7] = biological target: T1, IGFBP-3; experiment: competitive phage ELISA of IGF-1 mutants, IGFBP-3; type: binding; settings: phage display, soluble IGFBP-3 competitor
Method: as §3, §4

IGFBP-3 [8] = biological target: T1, IGFBP-3; experiment: BIACORE competition assay: IGFBP-3 binding to immobilized IGF-1; settings: for IC50 (mut) / IC50 (wt): IGF-1 inhibition, wt = BP3-01-ox
Method: IGF-1 was immobilized on a dextran chip for inhibition assays using a BIACORE™ 2000 surface-plasmon-resonance device (BIAcore, Inc., Piscataway, N.J.) to measure free binding protein. IGF-1 was biotinylated as described above, and injected over a chip to which streptavidin had been coupled (BIAcore, Inc.) to give 400 to 800 RU (response units) of immobilized IGF-1. […] Serial dilutions of peptide were mixed with a constant concentration (40 nM) of IGFBP-3. After incubation for >1 hour at room temperature, an aliquot of 20 μL was injected at a flow rate of 20 μL/min over the IGF-1 chip. Following the injection, a response reading was taken to measure the relative amount of IGFBP-3 bound to the IGF-1.

[9] = blood clearance, pharmacokinetics and tissue distribution of radiolabeled IGF-1 variants, IV in rats; type: in vivo, rat; settings: single IV dose in rats

Molecule: F16A/F49A: double mutant of IGF-1, F16A and F49A
- matrix synthesis in diseased human articular cartilage [1]: stimulated matrix synthesis in diseased human articular cartilage
- IGFBP-3 ka (IGFBP-3 [2]; Table XV): 0.4 ± 0.1 ×10^5 M^−1
- IGFBP-3 kd (IGFBP-3 [2]; Table XV): 38.6 ± 2.7 ×10^−4 s^−1

Molecule: P39A: IGF-1 single alanine mutant
- Binding to IGFBP-1 ka (IGFBP-1 [3]): 3.1 ± 0.2 ×10^4 M^−1s^−1
- Binding to IGFBP-1 KD (IGFBP-1 [3]): wild-type kinetics
- Specificity Relative BP-1 / Relative BP-3 (IGFBP-1 [4]): 0.7
- Binding to IGFBP-3 ka (IGFBP-3 [2]): 2.7 ± 0.2 ×10^5 M^−1s^−1
- Binding to IGFBP-3 KD (IGFBP-3 [2]): wild-type kinetics

Molecule: E3A/F49A: double mutant of IGF-1 combining point mutations E3A and F49A
- matrix synthesis in diseased human articular cartilage [1]: stimulated matrix synthesis in diseased human articular cartilage

Molecule: T4A: IGF-1 single alanine mutant
- relative specificity (IGFBP-1 [5]): 2.2
- Binding to IGFBP-1 ka (IGFBP-1 [3]): 1.9 ± 0.2 ×10^4 M^−1s^−1
- IC50 (IGFBP-1 [6]): 0.0194 ± 0.0064 µM
- Specificity Relative BP-1 / Relative BP-3 (IGFBP-1 [4]): 3.3
- IC50 (IGFBP-3 [7]): 0.0008 ± 2e-05 µM
- Binding to IGFBP-3 ka (IGFBP-3 [2]): 1.8 ± 0.6 ×10^5 M^−1s^−1

Molecule: ^125I-F49A: radiolabeled F49A IGF-1
- Half-life t1/2^α [9]: 3.84 ± 3.12 min
- Half-life t1/2^β [9]: 0.971 ± 0.336^+ hr
- Half-life t1/2^γ [9]: 8.97 ± 4.50 h
- clearance [9]: 427 ± 125*^+ ml/hr/kg
- steady-state distribution volume [9]: 3201 ± 488*^+ ml/kg

Molecule: CRAGPLQWLCEK-nh2 (CRAGPLQWLCEK-NH2; disulfide 1-10 (inferred)) [BP1-17]
- matrix synthesis, IGF-1 in combination with peptide ([1]; IGF-1 40 ng/ml, peptide 0.1 mg/ml): to some extent

Molecule: CSCC[C@H](NC(=O)[C@H](CC(N)=O)NC(=O)[C@@H]1CSSC[C@H](NC(=O)[C@@H](N)C(C)C)C(=O)N[C@@H](Cc2c[nH]c3ccccc23)C(=O)N2CCC[C@H]2C(=O)N[C@@H](C(C)C)C(=O)N[C@@H](C)C(=O)N[C@@H](CCC(=O)O)C(=O)N[C@@H](Cc2c[nH]c3ccccc23)C(=O)N[C@@H](Cc2ccc(O)cc2)C(=O)N[C@@H](CC(C)C)C(=O)N1)C(=O)N[C@@H](Cc1c[nH]c2ccccc12)C(=O)NCC(=O)O [BP3-16] (H-VCWPVAEWYLCNMWG-OH; disulfide 2-11; N-terminus and C-terminus assumed)
- IC50 (IGFBP-3 [8]): 30 µM

Molecule: CC(C)C[C@@H]1NC(=O)[C@H](Cc2ccc(O)cc2)NC(=O)[C@H](Cc2c[nH]c3ccccc23)NC(=O)[C@H](CCC(=O)O)NC(=O)[C@H](C)NC(=O)[C@H](C(C)C)NC(=O)[C@@H]2CCCN2C(=O)[C@H](Cc2c[nH]c3ccccc23)NC(=O)[C@@H](N)CSSC[C@@H](C(=O)N[C@@H](CC(N)=O)C(=O)O)NC1=O [BP3-25] (H-CWPVAEWYLCN-OH; disulfide 1-10; N-terminus and C-terminus assumed)
- IC50 (IGFBP-3 [8]): 46 µM
- IC50 (mut) / IC50 (wt) (IGFBP-3 [8]): 23

The next lines start with results.

- Binding to IGFBP-1 ka (IGFBP-1 [3]): 4.0 ± 0.2 ×10^4 M^−1s^−1
- Binding to IGFBP-1 KD (IGFBP-1 [3]): wild-type kinetics
- Specificity Relative BP-1 / Relative BP-3 (IGFBP-1 [4]): 1.4
- Binding to IGFBP-3 ka (IGFBP-3 [2]): 4.0 ± 0.1 ×10^5 M^−1s^−1
- Binding to IGFBP-3 KD (IGFBP-3 [2]): wild-type kinetics
Molecule: R36A: IGF-1 single alanine mutant

- Binding to IGFBP-1 ka (IGFBP-1 [3]): 1.9 ± 0.1 ×10^4 M^−1s^−1
- Specificity Relative BP-1 / Relative BP-3 (IGFBP-1 [4]): 1.1
- Binding to IGFBP-3 ka (IGFBP-3 [2]): 3.1 ± 0.5 ×10^5 M^−1s^−1
Molecule: V11A: IGF-1 single alanine mutant

- IC50 (IGFBP-3 [8]): 5.6 µM
- IC50 (mut) / IC50 (wt) (IGFBP-3 [8]): 2.8
Molecule: CSCC[C@H](NC(=O)[C@H](CC(N)=O)NC(=O)[C@@H]1CSSC[C@H](NC(=O)[C@@H](NC(=O)[C@H](CCC(=O)O)NC(=O)[C@H](CCC(=O)O)NC(=O)[C@H](CO)NC(=O)[C@H](C)N)C(C)C)C(=O)N[C@@H](Cc2c[nH]c3ccccc23)C(=O)N2CCC[C@H]2C(=O)N[C@@H](C(C)C)C(=O)N[C@@H](C)C(=O)N[C@@H](CCC(=O)O)C(=O)N[C@@H](Cc2c[nH]c3ccccc23)C(=O)N[C@@H](Cc2ccc(O)cc2)C(=O)N[C@@H](CC(C)C)C(=O)N1)C(=O)N[C@@H](Cc1c[nH]c2ccccc12)C(=O)NCC(=O)N[C@@H](CCCNC(=N)N)C(=O)O [4D3.3P] (H-ASEEVCWPVAEWYLCNMWGR-OH; disulfide 6-15; N-terminus and C-terminus assumed)

- Binding to IGFBP-1 ka (IGFBP-1 [3]): 3.2 ± 0.2 ×10^4 M^−1s^−1
- Specificity Relative BP-1 / Relative BP-3 (IGFBP-1 [4]): 0.7
- Binding to IGFBP-3 ka (IGFBP-3 [2]): 2.9 ± 0.8 ×10^5 M^−1s^−1
Molecule: G1S-A70V: IGF-1 double mutant, first and last amino acids changed; template for alanine scan
- relative specificity (IGFBP-1 [5]): 1.0

From patent US7423017B2, “Method for treating cartilage disorders” (Genentech, Inc., priority 1997, dated 2008)
